Source: the DeepSol protein solubility set

Experiment: soluble on expression in E. coli; label from the status in PepcDB or PDB records

Sequence	soluble on expression in E. coli
MKKPVIGITGNEKTHPDDDIMMSYAAKGFVEGVKDAGGIPIILPIGDQEMACHYISLIDKLILTGGQNVDPKFYGEPKTIDSDDYHLQRDIFELALIKEAIKQKKPIFSVCRGTQLFNVAMGGTLYQDIEDHWQDSSVEYTTQRLVTEPDTVLQEIYGEISHINSFHHQSIKDLAPNLKVVAHDPKDGIIEAVMSTDDVAFLGVQWHPELLFENRPKDKKLFDYVVNEL	not soluble
MKKSLALLAFATLLPSAWTHADSAYINYRHQYAESTRMHADRVKFGSRLDSGWGFEGELKYKTAGDRQDVAFDNTVGNGHELTTSYQYRLNDKWMLTPSLALESIEKSTAYKMGLKLGYKVNDQLSVSGRYRYDSIKLDRDKVNHDMPDNQMDDQSINRYDVWVNYASKGPWAYEYQFTYFDADYIRYDNGRTDYEQNAAFKYRWDKHWVPFFEVGDIKVDSEDDKRQLRLRVGVQYNFL	not soluble
MKKVLLTLSLSIVASMGSFAQNEPYKNPKLTPEERAEDLLGRLTLKEKIGLMKNSSFAVERLGVAPYNWWSEALHGVARNGLATVFPITMGMASTFDDEAIERVYVAVSDEGRAKFHDAHRSNRYGYGNEGLTFWNPNVNIFRDPRWGRGQETFGEDPYLTTRMGVAVVKGMQGPADAEYDKAHACVKHYAVHSGPEAKRHSFDVEDLSPRDLWETYLPAFKALVQEADVKEVMCAYQRLEGEPCCDSNRLLTQILRDEWGYKHLVVSDCGAIDDFFVKGRHETHKDAADASASAVINGTDLECGSIYSHLEEAVKQGLITEERIDTSLRRLLKARFALGEMDP	not soluble
MKKVSVLIVAKNEANHIQECIESCRFDKEVIVIDDYSTDNTAEIAEGLGAKVFRRHLNGDFGAQKTFAIEQAGGEWVFLIDADERCTPELSDEISKIVQTGDYAAYFVERRNLFPNHPATHGAMRPDSVCRLMPKKDSSVQGKVHETVQTPYPKRRLKHFMYHYTYDNWEQYFNKFNKYTSISAEKYREQGKPVRFVRDIILRPIWGFFKIYILNKGFLDGKMGWIMSVNHSYYTMIKYVKLYYLYKSGGKF	not soluble
MKKVYIKTFGCQMNEYDSDKMADVLGSAEGMVKTDNPEEADVILFNTCSVREKAQEKVFSDLGRIRPLKEANPDLIIGVGGCVASQEGDAIVKRAPFVDVVFGPQTLHRLPDLIESRKQSGRSQVDISFPEIEKFDHIPPAKVDGGAAFVSIMEGCSKYCSFCVVPYTRGEEVSRPFEDVLTEIAGLAAQGVKEITLLGQNVNAYRGLMSDGEIADFALLLEYVHEVPGVERIRFTTSHPREFSQRIIDCYAKLPKLVSHLHLPVQSGSDRVLMAMKRGYTGLEYKSIIRKLRAIRPDLCLSSDFIIGFPGETEADFEQTLKLVRDCEFDFSFVFIYSPRPGTPAANLPDDTPHAEKVRRLEALNEVIEAKGYAINQSMVGTVQRVLVENVSKKDATMLAARTANNRVVNFAGHPRLLGRMIEVKITAAFPHSLAGEALTSESALEHHHHHH	soluble
MKKYLNQNVYDALIERLHFLFNDFPIVYISFSGGKDSGLLLNILLDFRDKYYPDREIGVFHQDFEAQYSLTTKYVQETFTSLEGRKKVSLYWVCLPMATRTALSSYEMFWYPWDDKTEDIWVRPMPSQDYVINLENNSITTYRYKMNQEDLAKQFGRWYKQIHGNQKTVCILGNRASESLHRYSGFINKKYGYQKECWITKQFKDVWTASPLYDWSVEDIWHAYYKFSYSYNELYDLFYKAGLKPSQMRVASPFQDYAVDSLNLYRIIDQETWVKLLGRVQGVNFSNIYGRTKAMGYKSIALPKGHSWKSYTQFLLSTLPVRLRNNYVRKFNKSIDFWHKTGGGLAEETINELIEKGYRIARNGISNYTSFKHSRVIFLDQIPDDTDDIVTTKDIPSWKRMCFCILKNDHICRTMGFGLTREQQKIVAFLKEKYKTSLKELESE	not soluble
MKLAELSKEEIQELSMVEVAYLVMKETKEPFNYQDLLKKVAELKGMSEEQMLDRIGYLYTDLNIDGRFVTLGDNRWGLRSWYPLEQVEEEITGPTKKKAKAKAEEEVDELDENIEVFDDEFEDLEDELDELAESEDSDEEDEEFDEGDDIDELDDEFEESDDDL	not soluble
MKLAVAGKGGVGKTTVAAGLIKIMASDYDKIYAVDGDPDSCLGQTLGLSIEEAYAITPLIEMKDEIREKTGDGGLLILNPKVDGDLDKYGRYIDDKIFLIRMGEIKKGGSQCYCRENSFLGSVVSALFLDKKEAVVMDMGAGIEHLTRGTAKAVDMMIAVIEPNLNSIKTGLNIEKLAGDLGIKKVRYVINKVRNIKEEKLIKKHLPEDKILGIIPYNELFIELSLKGEEIWQSTNPAFVNLHDIYQKLRLEVG	soluble
